We go through 2 molecules from patent US20250361311A1 (published 2025).

One assay deals with 70392_069[TL1A]H1L1. Briefly: SPR; monovalent Fab.
The next assay deals with 70392_189[TL1A]H1L1. Briefly: SPR; monovalent Fab.
Another assay has as its target 70392_201[TL1A]H1L1. Briefly: SPR; monovalent Fab.
A further assay has as its target 70416_092[TL1A]H1L1. Briefly: SPR; monovalent Fab.
For another assay, the target named is 70416_073[TL1A]H1L1. Briefly: SPR; monovalent Fab.
In another assay the target is 70417_111[TL1A]H1L1. Briefly: SPR; monovalent Fab.
For the next assay, the target named is Comparator 2. Briefly: SPR; monovalent Fab.
The next assay has as its target 70392_074[TL1A]H1L1. Briefly: SPR; monovalent Fab.
The next assay addresses T1, human scTL1A (human, UniProt O95150 72-251, biotinylated (captured with the Biotin CAPture kit); site not stated).
T1 chain: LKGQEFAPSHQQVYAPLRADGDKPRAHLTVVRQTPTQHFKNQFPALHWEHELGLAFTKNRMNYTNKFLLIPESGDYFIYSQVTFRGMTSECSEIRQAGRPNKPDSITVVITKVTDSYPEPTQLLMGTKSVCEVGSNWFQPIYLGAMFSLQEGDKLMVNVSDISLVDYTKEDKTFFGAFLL
Briefly: SPR; monovalent Fab.

A further assay addresses T2, recombinant TL1A (UniProt O95150 72-251).
T2 chain: T1 chain
Briefly: SPR; run in different experiment under similar conditions.

B1: scTL1A (ligand)
chain: T1 chain
modifications: biotinylated (captured with the Biotin CAPture kit); site not stated
With B1, the dissociation constant Kd in the assay with 70392_069[TL1A]H1L1 turned out to be 1.69 nM; with 70392_189[TL1A]H1L1, 0.895 nM; with 70392_201[TL1A]H1L1, 0.128 nM; with 70416_092[TL1A]H1L1 it was 3.12 nM; with 70416_073[TL1A]H1L1, 6.61 nM; in the assay with 70417_111[TL1A]H1L1 it was 6.84 nM. In addition, the dissociation constant Kd with Comparator 2 is 0.0708 nM; with 70392_074[TL1A]H1L1 it was 6.11 nM.

B2: 70416_041[TL1A]H1L1 Fab (Fab, V domains shown)
VH: QVQLVQSGAEVKKPGASVKVSCKVSGFSVTSYNVHWVRQAPGQGLEWMGVMWSGGNTDYNSKFQGRVTMTRDTSTNTVYMELSSLRSEDTAVYYCARAGRYYHDSNYYWDFPYWGQGTLVTVSS
VL: DIQMTQSPSSVSASVGDRVTITCRASEDIYSGLAWYQQKPGKSPKLLIYGASSLQDGVPSRFSGSGSGTDYTLTISSLQPEDFATYFCQEGLKSPYTFGAGTKLEIK
For B2, the Kd with human scTL1A and in the assay with recombinant TL1A was 0.104 nM each time.
